These results are taken from PMC10189407 (The Journal of Biological Chemistry, 2023).

The target in the assay is Aβ(1–28) (Homo sapiens (assumed), UniProt P05067). The assay is described as follows: SPR. For orientation: Surface plasmon resonance follows binding to a sensor surface in real time, without labels.
Chain of Aβ(1–28) (P05067 672-699): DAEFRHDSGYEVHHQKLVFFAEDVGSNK

B1: crenezumab G33S(HC)-NEP fusion, IgG-CTF-2 format (antibody, V domains shown)
VH: EVQLVESGGGLVQPGGSLRLSCAASGFTFSSYSMSWVRQAPGKGLELVASINSNGGSTYYPDSVKGRFTISRDNAKNSLYLQMNSLRAEDTAVYYCASGDYWGQGTTVTVSS
VL: DIVMTQSPLSLPVTPGEPASISCRSSQSLVYSNGDTYLHWYLQKPGQSPQLLIYKVSNRFSGVPDRFSGSGSGTDFTLKISRVEAEDVGVYYCSQSTHVPWTFGQGTKVEIK
For the molecule B1, the binding result is given as “binds”.

B2: crenezumab G33S(HC)/S56F(LC)-NEP fusion, IgG-CTF-2 format (antibody, V domains shown)
VH: EVQLVESGGGLVQPGGSLRLSCAASGFTFSSYSMSWVRQAPGKGLELVASINSNGGSTYYPDSVKGRFTISRDNAKNSLYLQMNSLRAEDTAVYYCASGDYWGQGTTVTVSS
VL: DIVMTQSPLSLPVTPGEPASISCRSSQSLVYSNGDTYLHWYLQKPGQSPQLLIYKVSNRFFGVPDRFSGSGSGTDFTLKISRVEAEDVGVYYCSQSTHVPWTFGQGTKVEIK
As for B2, the binding result was “binds”.
